In paper PMC10397247:
Each block holds one binder with its values, some of them ahead of it.

Assays:
4H1193-bH = target: T1, 4H1193-bH; assay: two-hybrid library CCNG1;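 further: natural log of median RNA to DNA barcode read ratio; higher means stronger binding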
T1 chain: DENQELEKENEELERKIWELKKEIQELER

4H1328-bH = target: T2, 4H1328-bH; assay: two-hybrid library CCNG1;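 further: natural log of median RNA to DNA barcode read ratio; higher means stronger binding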
T2 chain: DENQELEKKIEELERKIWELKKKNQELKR

4H1369-bH = target: T3, 4H1369-bH; assay: two-hybrid library CCNG1;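 further: natural log of median RNA to DNA barcode read ratio; higher means stronger binding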
T3 chain: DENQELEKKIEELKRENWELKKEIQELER

4H1387-bH = target: T4, 4H1387-bH; assay: two-hybrid library CCNG1;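 further: natural log of median RNA to DNA barcode read ratio; higher means stronger binding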
T4 chain: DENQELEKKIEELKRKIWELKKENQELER

4H1406-bH = target: T5, 4H1406-bH; assay: two-hybrid library CCNG1
T5 chain: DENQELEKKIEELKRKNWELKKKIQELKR

4H1446-bH = target: T6, 4H1446-bH; assay: two-hybrid library CCNG1
T6 chain: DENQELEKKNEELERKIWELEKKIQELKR

4H1845-bH = target: T7, 4H1845-bH; assay: two-hybrid library CCNG1
T7 chain: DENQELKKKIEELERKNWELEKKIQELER

4H2576-bH = target: T8, 4H2576-bH; assay: two-hybrid library CCNG1
T8 chain: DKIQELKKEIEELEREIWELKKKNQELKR

4H2610-bH = target: T9, 4H2610-bH; assay: two-hybrid library CCNG1
T9 chain: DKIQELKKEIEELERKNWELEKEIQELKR

4H2667-bH = target: T10, 4H2667-bH; assay: two-hybrid library CCNG1
T10 chain: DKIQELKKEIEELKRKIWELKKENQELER

4H2697-bH = target: T11, 4H2697-bH; assay: two-hybrid library CCNG1
T11 chain: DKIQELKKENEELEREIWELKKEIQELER

4H3189-bH = target: T12, 4H3189-bH; assay: two-hybrid library CCNG1
T12 chain: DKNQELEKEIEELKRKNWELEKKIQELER

4H331-bH = target: T13, 4H331-bH; assay: two-hybrid library CCNG1
T13 chain: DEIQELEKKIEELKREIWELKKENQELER

4H3592-bH = target: T14, 4H3592-bH; assay: two-hybrid library CCNG1
T14 chain: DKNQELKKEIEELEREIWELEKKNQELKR

4H3601-bH = target: T15, 4H3601-bH; assay: two-hybrid library CCNG1
T15 chain: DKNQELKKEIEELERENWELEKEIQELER

4H3606-bH = target: T16, 4H3606-bH; assay: two-hybrid library CCNG1
T16 chain: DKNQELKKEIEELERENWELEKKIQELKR

4H370-bH = target: T17, 4H370-bH; assay: two-hybrid library CCNG1
T17 chain: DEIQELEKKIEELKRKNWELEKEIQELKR

4H3782-bH = target: T18, 4H3782-bH; assay: two-hybrid library CCNG1
T18 chain: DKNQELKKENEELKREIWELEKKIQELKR

4H3843-bH = target: T19, 4H3843-bH; assay: two-hybrid library CCNG1
T19 chain: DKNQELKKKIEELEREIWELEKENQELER

4H3907-bH = target: T20, 4H3907-bH; assay: two-hybrid library CCNG1
T20 chain: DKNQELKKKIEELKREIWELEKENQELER

4H4001-bH = target: T21, 4H4001-bH; assay: two-hybrid library CCNG1
T21 chain: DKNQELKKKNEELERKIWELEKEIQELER

4H4038-bH = target: T22, 4H4038-bH; assay: two-hybrid library CCNG1
T22 chain: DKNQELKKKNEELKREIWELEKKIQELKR

4H462-bH = target: T23, 4H462-bH; assay: two-hybrid library CCNG1
T23 chain: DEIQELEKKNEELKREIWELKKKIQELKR

4H568-bH = target: T24, 4H568-bH; assay: two-hybrid library CCNG1
T24 chain: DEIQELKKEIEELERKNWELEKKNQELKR

4H607-bH = target: T25, 4H607-bH; assay: two-hybrid library CCNG1
T25 chain: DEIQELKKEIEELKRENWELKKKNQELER

4H687-bH = target: T26, 4H687-bH; assay: two-hybrid library CCNG1
T26 chain: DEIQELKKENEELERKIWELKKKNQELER

4H72-bH = target: T27, 4H72-bH; assay: two-hybrid library CCNG1
T27 chain: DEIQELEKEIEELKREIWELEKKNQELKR

4H797-bH = target: T28, 4H797-bH; assay: two-hybrid library CCNG1
T28 chain: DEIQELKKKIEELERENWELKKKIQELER

4H883-bH = target: T29, 4H883-bH; assay: two-hybrid library CCNG1
T29 chain: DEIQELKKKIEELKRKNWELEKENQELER

4H918-bH = target: T30, 4H918-bH; assay: two-hybrid library CCNG1
T30 chain: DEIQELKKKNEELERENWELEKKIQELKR

4H953-bH = target: T31, 4H953-bH; assay: two-hybrid library CCNG1
T31 chain: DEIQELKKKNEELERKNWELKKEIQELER

4H967-bH = target: T32, 4H967-bH; assay: two-hybrid library CCNG1
T32 chain: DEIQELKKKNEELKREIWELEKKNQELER

P8A-bS = target: T33, P8A-bS; assay: two-hybrid library CCNG1
T33 chain: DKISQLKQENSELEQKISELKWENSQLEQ

Core_ININ-es_KEEK = target: T34, Core_ININ-es_KEEK; assay: two-hybrid library CCmax; conditions: mean of both orientations
T34 chain: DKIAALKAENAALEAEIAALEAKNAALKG

4H1257-bH = target: T35, 4H1257-bH; assay: two-hybrid library CCNG1
T35 chain: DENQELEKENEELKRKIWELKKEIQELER

4H1828-bH = target: T36, 4H1828-bH; assay: two-hybrid library CCNG1
T36 chain: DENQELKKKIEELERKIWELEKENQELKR

4H2442-bH = target: T37, 4H2442-bH; assay: two-hybrid library CCNG1
T37 chain: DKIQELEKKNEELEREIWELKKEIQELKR

4H2618-bH = target: T38, 4H2618-bH; assay: two-hybrid library CCNG1
T38 chain: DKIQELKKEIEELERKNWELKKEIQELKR

4H2729-bH = target: T39, 4H2729-bH; assay: two-hybrid library CCNG1
T39 chain: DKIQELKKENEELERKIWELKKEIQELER

4H3112-bH = target: T40, 4H3112-bH; assay: two-hybrid library CCNG1
T40 chain: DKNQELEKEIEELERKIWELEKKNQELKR

4H3185-bH = target: T41, 4H3185-bH; assay: two-hybrid library CCNG1
T41 chain: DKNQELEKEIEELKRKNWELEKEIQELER

4H3354-bH = target: T42, 4H3354-bH; assay: two-hybrid library CCNG1
T42 chain: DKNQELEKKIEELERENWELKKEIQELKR

4H338-bH = target: T43, 4H338-bH; assay: two-hybrid library CCNG1
T43 chain: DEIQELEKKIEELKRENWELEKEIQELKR

4H3381-bN = target: T44, 4H3381-bN; assay: two-hybrid library CCNG1
T44 chain: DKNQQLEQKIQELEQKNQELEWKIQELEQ

4H3427-bH = target: T45, 4H3427-bH; assay: two-hybrid library CCNG1
T45 chain: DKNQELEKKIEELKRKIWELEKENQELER

4H3855-bH = target: T46, 4H3855-bH; assay: two-hybrid library CCNG1
T46 chain: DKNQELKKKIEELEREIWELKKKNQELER

4H454-bH = target: T47, 4H454-bH; assay: two-hybrid library CCNG1
T47 chain: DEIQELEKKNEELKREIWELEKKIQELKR

4H717-bH = target: T48, 4H717-bH; assay: two-hybrid library CCNG1
T48 chain: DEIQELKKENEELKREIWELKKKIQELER

4H754-bH = target: T49, 4H754-bH; assay: two-hybrid library CCNG1
T49 chain: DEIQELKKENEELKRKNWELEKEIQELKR

4H908-bH = target: T50, 4H908-bH; assay: two-hybrid library CCNG1
T50 chain: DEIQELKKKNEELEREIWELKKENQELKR

interaction score (4H1193-bH): -0.399
interaction score (4H1328-bH): 0.732
interaction score (4H1369-bH): -0.969
interaction score (4H1387-bH): -0.684
interaction score (4H1406-bH): -0.835
interaction score (4H1446-bH): 0.131
interaction score (4H1845-bH): -0.0802
interaction score (4H2576-bH): 1.19
interaction score (4H2610-bH): -0.0229
interaction score (4H2667-bH): -0.964
interaction score (4H2697-bH): -0.317
interaction score (4H3189-bH): -0.917
interaction score (4H331-bH): -0.0475
interaction score (4H3592-bH): 0.341
interaction score (4H3601-bH): 0
interaction score (4H3606-bH): -0.559
interaction score (4H370-bH): -0.564
interaction score (4H3782-bH): 1.32
interaction score (4H3843-bH): 0.181
interaction score (4H3907-bH): 0.0514
interaction score (4H4001-bH): 0.425
interaction score (4H4038-bH): 1.52
interaction score (4H462-bH): -1.11
interaction score (4H568-bH): -0.254
interaction score (4H607-bH): -1.7
interaction score (4H687-bH): -0.482
interaction score (4H72-bH): -0.782
interaction score (4H797-bH): -0.528
interaction score (4H883-bH): -0.574
interaction score (4H918-bH): -1.33
interaction score (4H953-bH): -1.33
interaction score (4H967-bH): -0.174
interaction score (P8A-bS): 0.622
B1: 4H1193-bH (peptide)
chain: DENQELEKENEELERKIWELKKEIQELER

interaction score (Core_ININ-es_KEEK): 2.15
B2: Core_ININ-es_EKKE (peptide)
chain: DEIAALEAKNAALKAKIAALKAENAALEG

interaction score (4H1257-bH): -1.44
interaction score (4H1446-bH): -0.833
interaction score (4H1828-bH): -0.108
interaction score (4H1845-bH): -1.83
interaction score (4H2442-bH): -0.172
interaction score (4H2576-bH): 0.394
interaction score (4H2618-bH): 0.0958
interaction score (4H2667-bH): -0.837
interaction score (4H2729-bH): 0.0373
interaction score (4H3112-bH): -0.383
interaction score (4H3185-bH): -0.808
interaction score (4H331-bH): -0.435
interaction score (4H3354-bH): -0.79
interaction score (4H338-bH): -0.528
interaction score (4H3381-bN): -0.693
interaction score (4H3427-bH): 0.386
interaction score (4H3782-bH): 0.911
interaction score (4H3855-bH): -0.288
interaction score (4H4001-bH): -0.377
interaction score (4H454-bH): 1.26
interaction score (4H568-bH): -0.399
interaction score (4H607-bH): -0.218
interaction score (4H687-bH): 0.172
interaction score (4H717-bH): -0.541
interaction score (4H72-bH): -2.61
interaction score (4H754-bH): -0.282
interaction score (4H797-bH): -0.73
interaction score (4H883-bH): 0.223
interaction score (4H908-bH): -0.669
interaction score (4H918-bH): 0.00985
interaction score (4H953-bH): -0.825
interaction score (4H967-bH): -1.63
B3: 4H1257-bH (peptide)
chain: DENQELEKENEELKRKIWELKKEIQELER
